Measurements as given in article PMC9205196.

Molecular target: Recombinant human FGF2 (fibroblast growth factor-2), biotinylated (human)
Experiment: AlphaScreen or HTRF

EC50: 7 nM
B1: mSDC1: commercial glycosylated, mammalian expressed recombinant mouse SDC1 ectodomain (domain or fragment)
chain: QIVAVNVPPEDQDGSGDDSDNFSGSGTGALPDTLSRQTPSTWKDVWLLTATPTAPEPTSSNTETAFTSVLPAGEKPEEGEPVLHVEAEPGFTARDKEKEVTTRPRETVQLPITQRASTVRVTTAQAAVTSHPHGGMQPGLHETSAPTAPGQPDHQPPRVEGGGTSVIKEVVEDGTANQLPAGEGSGEQDFTFETSGENTAVAAVEPGLRNQPPVDEGATGASQSLLDRKEVLG
modifications: native GAG chains from the mammalian host (CS predominant over HS by the paper's disaccharide analysis)
